Measured values taken from PMC9482650, “Quantitative fragmentomics allow affinity mapping of interactomes” (Nature Communications, 2022).

T1: APBA1_1, Q02410
T1 sequence (Q02410 651-752, limits assumed, looked up): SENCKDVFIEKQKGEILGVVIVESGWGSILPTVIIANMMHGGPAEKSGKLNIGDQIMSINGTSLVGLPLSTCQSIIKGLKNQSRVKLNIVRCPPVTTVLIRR

T2: APBA1_2, Q02410
T2 sequence (Q02410 742-832, limits assumed, looked up): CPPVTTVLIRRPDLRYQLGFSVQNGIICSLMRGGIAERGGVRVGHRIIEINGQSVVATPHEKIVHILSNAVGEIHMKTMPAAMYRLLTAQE

T3: DLG3_1, Q92796
T3 sequence (Q92796 125-227, limits assumed, looked up): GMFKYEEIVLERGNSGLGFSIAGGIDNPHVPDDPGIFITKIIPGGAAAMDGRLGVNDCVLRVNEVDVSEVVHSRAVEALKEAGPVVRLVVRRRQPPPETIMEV

T4: DLG3_3, Q92796
T4 sequence (Q92796 374-475, limits assumed, looked up): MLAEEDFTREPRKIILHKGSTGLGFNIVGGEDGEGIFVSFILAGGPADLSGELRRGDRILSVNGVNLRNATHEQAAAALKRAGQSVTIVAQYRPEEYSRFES

T5: GRIP1_3, Q9Y3R0
T5 sequence (Q9Y3R0 247-346, limits assumed, looked up): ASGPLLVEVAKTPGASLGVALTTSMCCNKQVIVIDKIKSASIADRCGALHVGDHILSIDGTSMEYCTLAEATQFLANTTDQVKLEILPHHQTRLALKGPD

T6: GRIP1_5, Q9Y3R0
T6 sequence (Q9Y3R0 568-668, limits assumed, looked up): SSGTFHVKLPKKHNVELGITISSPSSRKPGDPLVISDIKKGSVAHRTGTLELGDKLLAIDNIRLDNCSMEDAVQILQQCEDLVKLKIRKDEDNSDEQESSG

T7: LNX2_2, Q8N448
T7 sequence (Q8N448 334-432, limits assumed, looked up): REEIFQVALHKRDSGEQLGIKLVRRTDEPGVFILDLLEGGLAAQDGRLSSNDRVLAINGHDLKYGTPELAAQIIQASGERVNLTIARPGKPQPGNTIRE

T8: MPP2, Q14168
T8 sequence (Q14168 180-250, limits assumed, looked up): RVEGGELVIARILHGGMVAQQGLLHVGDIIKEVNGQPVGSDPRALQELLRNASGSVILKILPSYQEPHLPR

T9: NHERF3_1, Q5T2W1
T9 sequence (Q5T2W1 4-100, limits assumed, looked up): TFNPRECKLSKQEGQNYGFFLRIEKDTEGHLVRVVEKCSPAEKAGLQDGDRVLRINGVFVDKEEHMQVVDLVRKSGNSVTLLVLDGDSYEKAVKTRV

T10: RHPN1, Q8TCX5
T10 sequence (Q8TCX5 508-602, limits assumed, looked up): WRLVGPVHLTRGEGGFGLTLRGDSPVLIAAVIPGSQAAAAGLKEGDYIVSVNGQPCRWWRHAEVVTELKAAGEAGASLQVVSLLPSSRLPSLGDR

T11: SYNJ2BP, P57105
T11 sequence (P57105 8-110, limits assumed, looked up): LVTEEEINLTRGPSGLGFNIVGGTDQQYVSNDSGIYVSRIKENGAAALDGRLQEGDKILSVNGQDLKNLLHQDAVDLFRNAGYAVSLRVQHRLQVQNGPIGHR

T12: TIAM2, Q8IVF5
T12 sequence (Q8IVF5 885-986, limits assumed, looked up): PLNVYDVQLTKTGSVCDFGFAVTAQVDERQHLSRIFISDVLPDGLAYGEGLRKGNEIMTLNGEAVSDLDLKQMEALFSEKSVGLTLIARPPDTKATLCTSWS

B1: KCNA1, Q09470 (peptide)
chain: VNKSKLLTDV
B2: BAZ1A, Q9NRL2 (peptide)
chain: TPPAAKKSRI
B3: KCNJ1, P48048 (peptide)
chain: EVNETDDTKM
B4: CTNNA1, P35221 (peptide)
chain: LSEFKAMDSI

target: AHNAK1, Q09666; experiment: holdup assay; design: key: below the threshold = too weak to quantify, mostly under pKd 3.1 to 4; conditions: plain residues with an end cap or a label only (N-terminal biotin on a linker: ado-ado)
Sequence (Q09666 4-100): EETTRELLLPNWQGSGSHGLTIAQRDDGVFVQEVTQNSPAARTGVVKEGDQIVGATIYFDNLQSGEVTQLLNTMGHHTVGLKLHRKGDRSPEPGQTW

Row | Binder | pKd
1 | B1 | below the threshold
2 | B2 | below the threshold
3 | B3 | below the threshold
4 | B4 | below the threshold

target: T1, APBA1_1, Q02410; experiment: holdup assay; design: key: below the threshold = too weak to quantify, mostly under pKd 3.1 to 4; conditions: plain residues with an end cap or a label only (N-terminal biotin on a linker: ado-ado)

Row | Binder | pKd
5 | B1 | below the threshold
6 | B2 | below the threshold
7 | B3 | below the threshold
8 | B4 | below the threshold

target: T2, APBA1_2, Q02410; experiment: holdup assay; design: key: below the threshold = too weak to quantify, mostly under pKd 3.1 to 4; conditions: plain residues with an end cap or a label only (N-terminal biotin on a linker: ado-ado)

Row | Binder | pKd
9 | B1 | 3.56
10 | B2 | below the threshold
11 | B3 | below the threshold
12 | B4 | below the threshold

target: T3, DLG3_1, Q92796; experiment: holdup assay; design: key: below the threshold = too weak to quantify, mostly under pKd 3.1 to 4; conditions: plain residues with an end cap or a label only (N-terminal biotin on a linker: ado-ado)

Row | Binder | pKd
13 | B1 | 3.66
14 | B2 | 3.53
15 | B3 | below the threshold
16 | B4 | below the threshold

target: T4, DLG3_3, Q92796; experiment: holdup assay; design: key: below the threshold = too weak to quantify, mostly under pKd 3.1 to 4; conditions: plain residues with an end cap or a label only (N-terminal biotin on a linker: ado-ado)

Row | Binder | pKd
17 | B1 | below the threshold
18 | B2 | below the threshold
19 | B3 | below the threshold
20 | B4 | below the threshold

target: DLG4_1, P78352; experiment: holdup assay; design: key: below the threshold = too weak to quantify, mostly under pKd 3.1 to 4; conditions: plain residues with an end cap or a label only (N-terminal biotin on a linker: ado-ado)
Sequence (P78352 62-152): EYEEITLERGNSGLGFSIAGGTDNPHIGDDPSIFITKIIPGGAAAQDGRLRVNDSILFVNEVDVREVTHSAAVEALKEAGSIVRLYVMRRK

Row | Binder | pKd
21 | B1 | 4.08
22 | B2 | below the threshold
23 | B3 | below the threshold
24 | B4 | below the threshold

target: FRMPD2_3, Q68DX3; experiment: holdup assay; design: key: below the threshold = too weak to quantify, mostly under pKd 3.1 to 4; conditions: plain residues with an end cap or a label only (N-terminal biotin on a linker: ado-ado)
Sequence (Q68DX3 1073-1166): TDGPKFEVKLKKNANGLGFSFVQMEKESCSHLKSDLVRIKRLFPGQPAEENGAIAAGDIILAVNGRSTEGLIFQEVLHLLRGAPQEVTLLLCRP

Row | Binder | pKd
25 | B1 | below the threshold
26 | B2 | below the threshold
27 | B3 | below the threshold
28 | B4 | below the threshold

target: GRID2IP_2, A4D2P6; experiment: holdup assay; design: key: below the threshold = too weak to quantify, mostly under pKd 3.1 to 4; conditions: plain residues with an end cap or a label only (N-terminal biotin on a linker: ado-ado)
Sequence (A4D2P6 272-370): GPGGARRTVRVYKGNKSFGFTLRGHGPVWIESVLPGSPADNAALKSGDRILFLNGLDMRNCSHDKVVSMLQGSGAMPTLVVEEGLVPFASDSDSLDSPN

Row | Binder | pKd
29 | B1 | 3.71
30 | B2 | 4.42
31 | B3 | below the threshold
32 | B4 | below the threshold

target: T5, GRIP1_3, Q9Y3R0; experiment: holdup assay; design: key: below the threshold = too weak to quantify, mostly under pKd 3.1 to 4; conditions: plain residues with an end cap or a label only (N-terminal biotin on a linker: ado-ado)

Row | Binder | pKd
33 | B1 | below the threshold
34 | B2 | below the threshold
35 | B3 | below the threshold
36 | B4 | below the threshold

target: T6, GRIP1_5, Q9Y3R0; experiment: holdup assay; design: key: below the threshold = too weak to quantify, mostly under pKd 3.1 to 4; conditions: plain residues with an end cap or a label only (N-terminal biotin on a linker: ado-ado)

Row | Binder | pKd
37 | B1 | below the threshold
38 | B2 | below the threshold
39 | B3 | below the threshold
40 | B4 | below the threshold

target: GRIP2_4, Q9C0E4; experiment: holdup assay; design: key: below the threshold = too weak to quantify, mostly under pKd 3.1 to 4; conditions: plain residues with an end cap or a label only (N-terminal biotin on a linker: ado-ado)
Sequence (Q9C0E4 446-548): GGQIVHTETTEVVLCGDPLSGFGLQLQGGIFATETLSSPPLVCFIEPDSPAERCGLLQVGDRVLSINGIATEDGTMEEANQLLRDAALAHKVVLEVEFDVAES

Row | Binder | pKd
41 | B1 | below the threshold
42 | B2 | below the threshold
43 | B3 | below the threshold
44 | B4 | below the threshold

target: GRIP2_5, Q9C0E4; experiment: holdup assay; design: key: below the threshold = too weak to quantify, mostly under pKd 3.1 to 4; conditions: plain residues with an end cap or a label only (N-terminal biotin on a linker: ado-ado)
Sequence (Q9C0E4 544-642): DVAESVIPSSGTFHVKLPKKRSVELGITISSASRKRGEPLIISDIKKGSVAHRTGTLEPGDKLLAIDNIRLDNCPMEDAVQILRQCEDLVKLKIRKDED

Row | Binder | pKd
45 | B1 | below the threshold
46 | B2 | below the threshold
47 | B3 | below the threshold
48 | B4 | below the threshold

target: HTRA1, Q92743; experiment: holdup assay; design: key: below the threshold = too weak to quantify, mostly under pKd 3.1 to 4; conditions: plain residues with an end cap or a label only (N-terminal biotin on a linker: ado-ado)
Sequence (Q92743 360-477): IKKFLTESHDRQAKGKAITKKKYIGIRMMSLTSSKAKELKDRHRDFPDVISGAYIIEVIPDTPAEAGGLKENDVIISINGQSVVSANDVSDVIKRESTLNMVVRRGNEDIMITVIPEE

Row | Binder | pKd
49 | B1 | below the threshold
50 | B2 | below the threshold
51 | B3 | below the threshold
52 | B4 | below the threshold

target: IL16_3, Q14005; experiment: holdup assay; design: key: below the threshold = too weak to quantify, mostly under pKd 3.1 to 4; conditions: plain residues with an end cap or a label only (N-terminal biotin on a linker: ado-ado)
Sequence (Q14005 1107-1207): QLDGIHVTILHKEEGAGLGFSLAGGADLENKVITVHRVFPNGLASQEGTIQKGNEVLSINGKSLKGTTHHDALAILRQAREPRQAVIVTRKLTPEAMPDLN

Row | Binder | pKd
53 | B1 | below the threshold
54 | B2 | below the threshold
55 | B3 | below the threshold
56 | B4 | below the threshold

target: Inadl_8, Q8NI35; experiment: holdup assay; design: key: below the threshold = too weak to quantify, mostly under pKd 3.1 to 4; conditions: plain residues with an end cap or a label only (N-terminal biotin on a linker: ado-ado)
Sequence (Q8NI35 1425-1530): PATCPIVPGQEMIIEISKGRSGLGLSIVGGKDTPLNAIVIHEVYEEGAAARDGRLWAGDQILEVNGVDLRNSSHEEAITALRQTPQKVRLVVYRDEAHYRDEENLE

Row | Binder | pKd
57 | B1 | 3.91
58 | B2 | 4.35
59 | B3 | below the threshold
60 | B4 | below the threshold

target: T7, LNX2_2, Q8N448; experiment: holdup assay; design: key: below the threshold = too weak to quantify, mostly under pKd 3.1 to 4; conditions: plain residues with an end cap or a label only (N-terminal biotin on a linker: ado-ado)

Row | Binder | pKd
61 | B1 | below the threshold
62 | B2 | below the threshold
63 | B3 | below the threshold
64 | B4 | below the threshold

target: MAGI1_1, Q96QZ7; experiment: holdup assay; design: key: below the threshold = too weak to quantify, mostly under pKd 3.1 to 4; conditions: plain residues with an end cap or a label only (N-terminal biotin on a linker: ado-ado)
Sequence (Q96QZ7 1-106): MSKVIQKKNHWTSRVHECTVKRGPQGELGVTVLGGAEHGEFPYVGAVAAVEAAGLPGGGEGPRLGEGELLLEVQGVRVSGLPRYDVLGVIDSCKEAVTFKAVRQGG

Row | Binder | pKd
65 | B1 | below the threshold
66 | B2 | below the threshold
67 | B3 | below the threshold
68 | B4 | below the threshold

target: T8, MPP2, Q14168; experiment: holdup assay; design: key: below the threshold = too weak to quantify, mostly under pKd 3.1 to 4; conditions: plain residues with an end cap or a label only (N-terminal biotin on a linker: ado-ado)

Row | Binder | pKd
69 | B1 | below the threshold
70 | B2 | below the threshold
71 | B3 | below the threshold
72 | B4 | below the threshold

target: T9, NHERF3_1, Q5T2W1; experiment: holdup assay; design: key: below the threshold = too weak to quantify, mostly under pKd 3.1 to 4; conditions: plain residues with an end cap or a label only (N-terminal biotin on a linker: ado-ado)

Row | Binder | pKd
73 | B1 | below the threshold
74 | B2 | below the threshold
75 | B3 | 5.39
76 | B4 | below the threshold

target: NOS1, P29475; experiment: holdup assay; design: key: below the threshold = too weak to quantify, mostly under pKd 3.1 to 4; conditions: plain residues with an end cap or a label only (N-terminal biotin on a linker: ado-ado)
Sequence (P29475 9-101): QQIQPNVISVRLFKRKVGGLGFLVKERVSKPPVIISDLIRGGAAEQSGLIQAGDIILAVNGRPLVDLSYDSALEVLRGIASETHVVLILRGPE

Row | Binder | pKd
77 | B1 | below the threshold
78 | B2 | 3.51
79 | B3 | below the threshold
80 | B4 | below the threshold

target: PDLIM1, O00151; experiment: holdup assay; design: key: below the threshold = too weak to quantify, mostly under pKd 3.1 to 4; conditions: plain residues with an end cap or a label only (N-terminal biotin on a linker: ado-ado)
Sequence (O00151 1-87): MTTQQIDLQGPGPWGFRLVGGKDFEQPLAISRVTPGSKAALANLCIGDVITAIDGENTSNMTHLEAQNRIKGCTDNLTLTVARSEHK

Row | Binder | pKd
81 | B1 | below the threshold
82 | B2 | below the threshold
83 | B3 | below the threshold
84 | B4 | below the threshold

target: PICK1, Q9NRD5; experiment: holdup assay; design: key: below the threshold = too weak to quantify, mostly under pKd 3.1 to 4; conditions: plain residues with an end cap or a label only (N-terminal biotin on a linker: ado-ado)
Sequence (Q9NRD5 17-115): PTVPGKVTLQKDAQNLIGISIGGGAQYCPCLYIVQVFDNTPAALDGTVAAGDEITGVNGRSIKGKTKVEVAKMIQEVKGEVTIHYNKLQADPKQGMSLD

Row | Binder | pKd
85 | B1 | below the threshold
86 | B2 | below the threshold
87 | B3 | 4.17
88 | B4 | 4.08

target: T10, RHPN1, Q8TCX5; experiment: holdup assay; design: key: below the threshold = too weak to quantify, mostly under pKd 3.1 to 4; conditions: plain residues with an end cap or a label only (N-terminal biotin on a linker: ado-ado)

Row | Binder | pKd
89 | B1 | 3.96
90 | B2 | 3.61
91 | B3 | below the threshold
92 | B4 | below the threshold

target: SNX27, Q96L92; experiment: holdup assay; design: key: below the threshold = too weak to quantify, mostly under pKd 3.1 to 4; conditions: plain residues with an end cap or a label only (N-terminal biotin on a linker: ado-ado)

Row | Binder | pKd
93 | B1 | below the threshold
94 | B2 | below the threshold
95 | B3 | 4.6
96 | B4 | below the threshold

target: T11, SYNJ2BP, P57105; experiment: holdup assay; design: key: below the threshold = too weak to quantify, mostly under pKd 3.1 to 4; conditions: plain residues with an end cap or a label only (N-terminal biotin on a linker: ado-ado)

Row | Binder | pKd
97 | B1 | 3.72
98 | B2 | below the threshold
99 | B3 | 4.39
100 | B4 | below the threshold

target: T12, TIAM2, Q8IVF5; experiment: holdup assay; design: key: below the threshold = too weak to quantify, mostly under pKd 3.1 to 4; conditions: plain residues with an end cap or a label only (N-terminal biotin on a linker: ado-ado)

Row | Binder | pKd
101 | B1 | 3.95
102 | B2 | below the threshold
103 | B3 | below the threshold
104 | B4 | 3.48
